{
  "source": "paper PMC12298772",
  "biological_target": "PUUV SP-mEGFP-Gc∆CT (Gc devoid of the cytoplasmic tail, labelled with mEGFP) (Puumala orthohantavirus (PUUV), strain Sotkamo/V-2969/81)",
  "experiment": "Number and Brightness (N&B) fluorescence fluctuation microscopy",
  "data": [
    {"substance": "PUUV SP-mEGFP-Gc∆CT (Gc devoid of the cytoplasmic tail, labelled with mEGFP) (domain or fragment)", "values": [
      {"measurement": "average multimerization", "value": 1.4},
      {"measurement": "fraction of monomers (assuming a monomer-dimer equilibrium)", "value": 75, "unit": "mol%"}
    ]}
  ]
}
